Results reported in article PMC12051542, “Identification of the phosphatase essential for riboflavin biosynthesis in Aquifex aeolicus” (The Journal of Biological Chemistry, 2025).

How the values were obtained:
[1] = biological target: putative phosphatase 17 (PP17), a histidine family phosphatase (HFP), Aquifex aeolicus (Aquifex aeolicus); assay: SEC; preparative gel filtration, 120 ml HiLoad 16/600 Superdex 75 prep grade column, 50 mM Hepes pH 8.0, 150 mM NaCl, 20% glycerol
[2] = biological target: the molecule itself; assay: SEC; 120 ml HiLoad 16/600 Superdex 75 prep grade column, 50 mM Hepes pH 8.0, 150 mM NaCl, 20% glycerol; molecular weight from a standard curve of commercial standard proteins (65 kDa)

Row | stoichiometry N [1] | Molecule | stoichiometry N [2]
1 | 2 | putative phosphatase 17 (PP17), a histidine family phosphatase (HFP), Aquifex aeolicus (enzyme) | –
2 | – | putative phosphatase 11 (PP11), annotated as a myo-inositol-1(or 4)-monophosphatase (IMP), Aquifex aeolicus (enzyme, Aquifex aeolicus putative phosphatase 11, annotated as myo-inositol-1(or 4)-monophosphatase; codon optimised, in pET20b with a stop codon before the C-terminal histidine tag so that the protein is expressed in the native form; Untagged; Two magnesium ions and a phosphate in the active site of the structure; source: E. coli BL21 (DE3), purified (heat 70 °C, gel filtration)) MENLKKYLEVAKIAALAGGQVLKENFGKVKKENIEEKGEKDFVSYVDKTSEERIKEVILKFFPDHEVVGEEMGAEGSGSEYRWFIDPLDGTKNYINGFPIFAVSVGLVKGEEPIVGAVYLPYFDKLYWGAKGLGAYVNGKRIKVKDNESLKHAGVVYGFPSRSRRDISIYLNIFKDVFYEVGSMRRPGAAAVDLCMVAEGIFDGMMEFEMKPWDITAGLVILKEAGGVYTLVGEPFGVSDIIAGNKALHDFILQVAKKYMEVAV | 2
